Assay results as given in the RNAGym collection of RNA variant scans (doi:10.1093/molbev/msab373).

B1: Azoarcus group I ribozyme (parent)
chain: GUGCCUUGCGCCGGGAAACCACGCAAGGGAUGGUGUCAAAUUCGGCGAAACCUAAGCGCCCGCCCGGGCGUAUGGCAACGCCGAGCCAAGCUUCGGCGCCUGCGCCGAUGAAGGUGUAGAGACUAGACGGCACCCACCUAAGGCAAACGCUAUGGUGAAGGCAUAGUCCAGGGAGUGGCGAAAGUCACACAAACCGG

Variants of: B1
Assay: reverse-splicing fitness (ratio to wild type); higher = more active; in vitro selection; Mg2+ level not given
Procedure, shortened: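 An in vitro group I ribozyme library with randomized positions was T7-transcribed and gel-purified. In triplicate, 10 pmol RNA in EPPS pH 7.5 was reacted with 50 pmoles of a 30-nt RNA substrate for 1 h at 37 °C across several added MgCl2 levels (1–48 mM), then stopped with EDTA. Products were reverse transcribed from a substrate-complementary primer, PCR-amplified and sequenced (HiSeq 4000). Fitness is a variant's read proportion after selection over that before, normalised to wild type.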

Row | Variant | reverse-splicing fitness
1 | C82U A111C A120U A145U U176A | 0.00693
2 | C82U A111C A120U A145U U176C | 0.0113
3 | C82U A111C A145G C150A | 0.0325
4 | C82U A111C A145G C150G | 0.0275
5 | C82U A111C A145G C150U | 0.183
6 | C82U A111C A120U C150G C169G | 0.00621
7 | C82U A111C A120U C150G C169U | 0.00611
8 | C82U A111C A120U C150G C169A | 0.00691
9 | C82U A111C A120U A145G C150U C169G U176C | 0.00346
10 | C82U A111C A120U A145G C150U C169G U176A | 0.00475
11 | C82U A111C A120U A145G C150U C169G U176G | 0.0025
12 | C82U A111C A145U C150U | 0.148
13 | C82U A111C A145U C150G | 0.0215
14 | C82U A111C A145U C150A | 0.0231
15 | C82U A111C A120U C150U C169U U176A | 0.00612
16 | C82U A111C A120U C150U C169U U176G | 0.00197
17 | C82U A111C A120U C150U C169U U176C | 0.00387
18 | C82U A111C A120U A145G C150G U176A | 0.00648
19 | C82U A111C A120U A145G C150G U176G | 0.00395
20 | C82U A111C A120U A145G C150G U176C | 0.00806
21 | C82U A111C A145G C150G C169G U176G | 0.00571

Row | Variant | reverse-splicing fitness
22 | C82U A111C A145G C150G C169G U176A | 0.00912
23 | C82U A111C A145G C150G C169G U176C | 0.0117
24 | C82U A111C A120U C150A C169U | 0.00491
25 | C82U A111C A120U C150A C169G | 0.00399
26 | C82U A111C A120U C150A C169A | 0.00472
27 | C82U A111C A145G C150G C169U U176C | 0.00994
28 | C82U A111C A145G C150G C169U U176A | 0.0102
29 | C82U A111C A145G C150G C169U U176G | 0.0073
30 | C82U A111C A145U C150A C169A U176G | 0.00756
31 | C82U A111C A145U C150A C169A U176C | 0.0128
32 | C82U A111C A145U C150A C169A U176A | 0.0124
33 | C82U A111C A145G C150U U176C | 0.085
34 | C82U A111C A145G C150U U176G | 0.0161
35 | C82U A111C A145G C150U U176A | 0.0576
36 | C82U A111C A120U A145U C150A U176A | 0.00357
37 | C82U A111C A120U A145U C150A U176C | 0.00465
38 | C82U A111C A120U A145U C150A U176G | 0.00247
39 | C82U A111C A120U A145G C150U U176G | 0.00287
40 | C82U A111C A120U A145G C150U U176C | 0.0107
41 | C82U A111C A120U A145G C150U U176A | 0.00854
42 | C82U A111C A120U A145G C150U C169A U176C | 0.00367

Row | Variant | reverse-splicing fitness
43 | C82U A111C A120U A145G C150U C169A U176G | 0.00262
44 | C82U A111C A120U A145G C150U C169A U176A | 0.00691
45 | C82U A111C A120U A145U C150G C169G | 0.00306
46 | C82U A111C A120U A145U C150G C169A | 0.00391
47 | C82U A111C A120U A145U C150G C169U | 0.00311
48 | C82U A111C A120U A145U C150U U176G | 0.0027
49 | C82U A111C A120U A145U C150U U176A | 0.00562
50 | C82U A111C A120U A145U C150U U176C | 0.0089
51 | C82U A111C A145C C150U C169A | 0.00854
52 | C82U A111C A145C C150U C169U | 0.00891
53 | C82U A111C A145C C150U C169G | 0.00727
54 | C82U A111C A145C C150A C169A U176G | 0.00794
55 | C82U A111C A145C C150A C169A U176A | 0.0134
56 | C82U A111C A145C C150A C169A U176C | 0.00874
57 | C82U A111C A145C C150G C169G | 0.00696
58 | C82U A111C A145C C150G C169U | 0.00936
59 | C82U A111C A145C C150G C169A | 0.00742
60 | C82U A111C A120U C150A C169G U176G | 0.00237
61 | C82U A111C A120U C150A C169G U176A | 0.00492
62 | C82U A111C A120U C150A C169G U176C | 0.00392
63 | C82U A111C A145G C150U C169A | 0.00963

Row | Variant | reverse-splicing fitness
64 | C82U A111C A145G C150U C169G | 0.00802
65 | C82U A111C A145G C150U C169U | 0.00955
66 | C82U A111C A145C C150A C169U U176A | 0.0154
67 | C82U A111C A145C C150A C169U U176G | 0.00709
68 | C82U A111C A145C C150A C169U U176C | 0.0106
69 | C82U A111C A120U A145U | 0.0254
70 | C82U A111C A145G U176A | 0.0861
71 | C82U A111C A145G U176C | 0.113
72 | C82U A111C A145G U176G | 0.0201
73 | C82U A111C A145C C150G C169G U176C | 0.00811
74 | C82U A111C A145C C150G C169G U176A | 0.00798
75 | C82U A111C A145C C150G C169G U176G | 0.0058
76 | C82U A111C A120U A145G C150U C169U U176C | 0.00415
77 | C82U A111C A120U A145G C150U C169U U176G | 0.00271
78 | C82U A111C A120U A145G C150U C169U U176A | 0.00522
79 | C82U A111C A145U C150G C169A U176A | 0.00909
80 | C82U A111C A145U C150G C169A U176G | 0.00824
81 | C82U A111C A145U C150G C169A U176C | 0.0103
82 | C82U A111C A120U A145U C169A U176C | 0.00251
83 | C82U A111C A120U A145U C169A U176A | 0.00299
84 | C82U A111C A120U A145U C169A U176G | 0.00168
